{"source": "paper PMC3200314", "target": "recombinant neuraminidase ectodomain of A/California/04/2009 (pH1N1) (influenza A virus A/California/04/2009 (H1N1))", "assay": "SEC"}
{"substance": "recombinant neuraminidase ectodomain of A/California/04/2009 (pH1N1) (domain or fragment)", "values": [{"measurement": "stoichiometry N", "value": 4}]}
